Results from patent US12552837B2, “Bicyclic peptide ligands with detectable moieties and uses thereof” (BicycleRD Limited, priority 2017, dated 2026).
*1 amine or outer side, *2 acyl side, *3 side chain or, on linkers, in order; H or OH if unused. Where a SMILES comes first, the peptide text is derived from it. Bridges are numbered along the chain shown (N, C = ends). [ ]: non-standard residue; d: D form. The star is where a group is joined. DOTA = O=C(O)CN1CCN(CC(=O)O)CCN(CC(=O)*)CCN(CC(=O)O)CC1; 1Nal = N[C@@H](Cc1cccc2ccccc12)C(=O)O; TBMB = c1c(C[*:1])cc(C[*:3])cc1C[*:2]; Palmitoyl = CCCCCCCCCCCCCCCC(=O)*; Tle = CC(C)(C)[C@H](N)C(=O)O; Aib = CC(C)(N)C(=O)O; βAla = NCCC(=O)O; Sar = CNCC(=O)O

Key:
[1] = test system: HT1080 tumor; assay: Organ distribution of 177Lu-labelled peptides in HT1080 xenograft mice; format: in vivo, BALB/c nu/nu mice
Protocol: (§1) General procedure for radiolabelling with Lu-177.
(§2) • 50 μL 0.25 M Na-Acetate buffer pH 5.2+0.1% Tween 20; • 10 μL [Lu-177]LuCl3 in 0.05 M HCl; and • 2 μL of the diluted peptide (2 nmols). […]
(§3) Organ distribution studies, general method: For organ distribution, the respective dose is prepared by dilution of the labeling reaction mixture in injection buffer (0.25 M Na-Acetate pH 7+0.05% Tween20). The ^177Lu-radiolabeled peptide was injected via the tail vein of the nu/nu mice (50 kBq per mouse), transplanted with the respective cell line. At indicated time points after injection the animals were sacrificed. Blood, heart, lung, spleen, liver, kidney, muscle, brain, femur, and the tumor were dissected, blotted dry, and weighed. The radioactivity was measured with a γ-counter (CobraII; Canberra Packard) along with a sample of the injection solution to calculate the percentage injected dose per gram of tissue (% ID/g).
(§4) The γ- and β-emitter ^177LuCl3 (NEZ307D, Perkin Elmer, in 0.04 M HCl), with a t1/2 of 6.7 days was used for both in vivo biodistribution and internalization studies. Labeling reactions were performed by adding 10 μL ^177LuCl3 (˜10 MBq) in 50 mM HCl, 2 μL of the diluted peptide (1 mM solution in 50 mM HEPES buffer pH 7+0.1% Tween 20 diluted from a 10 mM DMSO stock) to 50 μL 50 mM HEPES buffer pH 7 supplemented with 0.1% Tween 20. The reaction mixture was incubated at 98° C. for 10 minutes. The radiochemical yield (RCY) was determined using high performance liquid chromatography (HPLC) system equipped with a Latek P402 (Latek, Eppelheim, Germany), a HITACHI variable UV detector (absorbance was measured at 214 and 254 nm) and a gamma detector (Bioscan, WA, USA), using a Chromolith RP-18 column (100×4.6 mm; Merck). The analytical HPLC run was performed at 4 mL/min, using a linear A (0.1% trifluoroacetic acid (TFA) in water) to B (0.1% TFA in acetonitrile) gradient (0% B to 100% B in 6 min). Thin-layer chromatography was performed in parallel to confirm the results of the radio-HPLC. The RCY was generally >95%, and thus, the output of labelling reactions was directly diluted with the appropriate buffer and further unlabeled peptide if required, to use in subsequent experiments.
(§5) 5×10^6 cells of HT1080 were subcutaneously inoculated into the right trunk of male 6-week-old BALB/c nu/nu mice (Charles River Laboratories). The tumors were grown for approximately 1 week, to a maximum size of ˜200 mm^3. Respective doses were prepared by mixing a fixed quantity of 5 pmoles ^177Lu labelled peptides (at approx. 50 kBq) with different quantities of non-labelled peptide (derived from 1 mM stock solution in 0.25 M sodium acetate pH 7+0.05% Tween20) in 100 μL injection buffer (0.25 M sodium acetate pH 7+0.05% Tween20). 3 animals were used per dose and timepoint. Radiolabelled peptide solutions were injected via the tail vein, followed by sacrifice at various time points. Organs of interest (blood, heart, lung, spleen, liver, kidney, muscle, small intestine, brain, HT1080 tumor) were dissected, blotted dry, and weighed. The radioactivity was measured using a gamma counter and calculated as % ID/g.

[2] = biological target: MT1-MMP hemopexin domain (Homo sapiens, UniProt P50281); assay: Fluorescence polarization direct binding / competition assay to MT1-MMP hemopexin domain
Protocol: Direct Binding Fluorescence Polarization or Anisotropy Assays are performed by titrating a constant concentration of fluorescent tracer (here, the fluoresceinated bicyclic peptide to be studied) with its binding partner (here, the MT1-MMP hemopexin domain). As the concentration of binding partner increases during the titration, the polarization signal changes in proportion to the fraction of bound and unbound material. This allows determination of […] (Kd) quantitatively. Assay data can be fit using standard ligand binding equations.
Typically, concentrations of the tracer are ideally well below the Kd of the tracer: titrant pair, and concentrations chosen are usually at ˜1 nM or less. The titrant (binding partner) concentration is varied from 0.1 nM up to typically 5 μM. The range is chosen such that the maximum change in fluorescent polarization can be observed. Buffers employed are phosphate buffered saline in the presence of 0.01% Tween. Experiments were run in black 384 well low-bind/low volume plates (Corning 3820), and the fluorescent polarization signal was measured using a BMG Pherastar FS plate reader. Fluorescent tracers referred to in the text are bicyclic peptides that have been fluoresceinated using 5,6-carboxyfluorescein. Fluoresceination may be performed on the N-terminal amino group of the peptide, which is separated from the bicycle core sequence by a sarcosine spacer (usually Sar10 (SEQ ID NO: 73)). This can be done during Fmoc solid phase synthesis or post-synthetically (after cyclization with the molecular scaffold reagent and purification) if the N-terminal amino group is unique to the peptide. Fluoresceination can also be performed on the C-terminus, usually on a Lysine introduced as the first C-terminal residue, which is then separated from the bicycle core sequence by a sarcosine spacer (usually Sar6 (SEQ ID NO: 69)). Thus, N-terminal tracers can have a molecular format described as Fluo-Ala-Sar10-A (SEQ ID NO: 72) (BicycleCoreSequence), and (BicycleCoreSequence)-A-Sar6-K (Fluo) (SEQ ID NO: 67) for a C-terminally fluoresceinated construct.
Fluorescent tracers used in the Examples are A-(17-69)-A-Sar6-K (Fluo) (SEQ ID NO: 67), A-(17-69-07)-A-Sar6-K (Fluo) (SEQ ID NO: 67), and A-(17-69-12)-A-Sar6-K (Fluo) (SEQ ID NO: 67). Due to the acidic nature of the 17-69 fluorescent peptides, they were typically prepared as concentrated DMSO stocks, from which dilution were prepared in 100 mM Tris pH 8 buffer.
Due to their high affinities to the MT1-MMP Hemopexin domain (PEX), the fluoresceinated derivatives of 17-69-07 and 17-69-12 (denoted as 17-69-07-N040 and 17-69-12-N005, respectively) can be used for competition experiments (using FP for detection). […] Dissociation of the complex can be measured quantitatively, and the Kd of the competitor (titrant) to the target protein determined. The advantage of the competition method is that the affinities of non-fluoresceinated bicyclic peptides can be determined accurately and rapidly.
Subsequently, the non-fluorescent competitor bicyclic peptide (usually just the bicycle core sequence) is titrated, such that it displaces the fluorescent tracer from the target protein. The displacement of the tracer is measured and associated with a drop in fluorescence polarization. The drop in fluorescence polarization is proportional to the fraction of target protein bound with the non-fluorescent titrant, and thus is a measure of the affinity of titrant to target protein. […]

[3] = Organ distribution of 177Lu-labelled peptides in HT1080 xenograft mice; format: in vivo, BALB/c nu/nu mice; settings: male, BALB/c nu/nu, mouse, HT1080 tumor, iv, total radioactivity; 1 h p.i. of 150 pmoles
Protocol: as §1, §2, §3, §4, §5

CC(C)[C@H](NC(=O)[C@@H](CC(=O)O)NC(=O)[C@H](Cc1c[nH]cn1)NC(=O)CN(C)C(=O)CN(C)C(=O)CN(C)C(=O)CN(C)C(=O)CN(C)C(=O)CN(C)C(=O)CN(C)C(=O)CN(C)C(=O)CN(C)C(=O)CN(C)C(=O)CCNC(=O)CN1CCN(CC(=O)O)CCN(CC(=O)O)CCN(CC(=O)O)CC1)C(=O)N1CCC[C@H]1C(=O)N[C@H]1CSCc2cc3cc(c2)CSC[C@H](NC(=O)[C@H](Cc2cccc4ccccc24)NC(=O)[C@H](Cc2ccccc2)NC(=O)C(C)(C)NC(=O)CNC(=O)[C@H](Cc2cccc4ccccc24)NC(=O)[C@@H]2CCCN2C1=O)C(=O)N1CCC[C@H]1C(=O)N[C@@H](C(C)(C)C)C(=O)N[C@@H](CC(N)=O)C(=O)N[C@@H](CCCNC(=N)N)C(=O)NC(C)(C)C(=O)N[C@H](CC(=O)O)C(=O)N[C@H](C(N)=O)CSC3 [I-17] ({DOTA-βAla}-[Sar][Sar][Sar][Sar][Sar][Sar][Sar][Sar][Sar][Sar]H[dD]VPCP[1Nal]G[Aib]F[1Nal]CP[Tle]NR[Aib][dD]C-NH2; linker 15-22-29 via TBMB)
blocking of tumor uptake at a dose of 500 pmoles ([1]; 1 h post injection): slightly blocked
blocking of tumor uptake using 5 nmoles ([1]; 1 h post injection): nearly completely blocked

C[C@H](NC(=O)CN(C)C(=O)CN(C)C(=O)CN(C)C(=O)CN(C)C(=O)CN(C)C(=O)CN(C)C(=O)CN(C)C(=O)CN(C)C(=O)CN(C)C(=O)CN(C)C(=O)CCNC(=O)CN1CCN(CC(=O)O)CCN(CC(=O)O)CCN(CC(=O)O)CC1)C(=O)N[C@H]1CSCc2cc3cc(c2)CSC[C@H](NC(=O)[C@@H](C)NC(=O)[C@H](Cc2cccc4ccccc24)NC(=O)[C@H](CCC(=O)O)NC(=O)[C@H](CC(N)=O)NC(=O)[C@@H](C)NC1=O)C(=O)N[C@@H](CCC(=O)O)C(=O)N[C@@H](CC(=O)O)C(=O)N[C@@H](Cc1ccccc1)C(=O)N[C@@H](Cc1ccc(O)cc1)C(=O)N[C@@H](CC(=O)O)C(=O)N[C@@H](C(C)(C)C)C(=O)N[C@H](C(N)=O)CSC3 [I-24] ({DOTA-βAla}-[Sar][Sar][Sar][Sar][Sar][Sar][Sar][Sar][Sar][Sar]AC[dA]NE[1Nal][dA]CEDFYD[Tle]C-NH2; linker 12-18-25 via TBMB)
Kd [2]: 0.00137 ± 0.00053 µM
tissue uptake at 1 h [3]: 7.04 ± 2.83 %ID/g
blocking of tumor uptake at a dose of 500 pmoles ([1]; 1 h post injection): slightly blocked
blocking of tumor uptake using 5 nmoles ([1]; 1 h post injection): nearly completely blocked
signal in the tumor compared to I-23 ([1]; 1 h post injection): slightly lower
tumor uptake compared to 17-69-07-N144 ([1]; 1 h post injection): significantly greater

C[C@H](NC(=O)CN1CCN(CC(=O)O)CCN(CC(=O)O)CCN(CC(=O)O)CC1)C(=O)N[C@H]1CSCc2cc3cc(c2)CSC[C@H](NC(=O)[C@H](C)NC(=O)[C@H](Cc2cccc4ccccc24)NC(=O)[C@H](CCC(=O)O)NC(=O)[C@H](CC(N)=O)NC(=O)[C@@H](C)NC1=O)C(=O)N[C@@H](C)C(=O)N[C@@H](CC(=O)O)C(=O)N[C@@H](Cc1ccccc1)C(=O)N[C@@H](Cc1ccc(O)cc1)C(=O)N[C@@H](CC(=O)O)C(=O)N[C@@H](C(C)(C)C)C(=O)N[C@H](C(N)=O)CSC3 [I-26] ({DOTA}-AC[dA]NE[1Nal]ACADFYD[Tle]C-NH2; linker 2-8-15 via TBMB)
Kd [2]: > 5 µM
tumor uptake compared with the binding variant I-23 ([1]; organ distribution, FIG. 8): essentially absent

C[C@H](NC(=O)CN(C)C(=O)CN(C)C(=O)CN(C)C(=O)CN(C)C(=O)CN(C)C(=O)CN(C)C(=O)CN(C)C(=O)CN(C)C(=O)CN(C)C(=O)CN(C)C(=O)CCNC(=O)CN1CCN(CC(=O)O)CCN(CC(=O)O)CCN(CC(=O)O)CC1)C(=O)N[C@H]1CSCc2cc3cc(c2)CSC[C@H](NC(=O)[C@H](C)NC(=O)[C@H](Cc2cccc4ccccc24)NC(=O)[C@H](CCC(=O)O)NC(=O)[C@H](CC(N)=O)NC(=O)[C@@H](C)NC1=O)C(=O)N[C@@H](C)C(=O)N[C@@H](CC(=O)O)C(=O)N[C@@H](Cc1ccccc1)C(=O)N[C@@H](Cc1ccc(O)cc1)C(=O)N[C@@H](CC(=O)O)C(=O)N[C@@H](C(C)(C)C)C(=O)N[C@H](C(N)=O)CSC3 [I-27] ({DOTA-βAla}-[Sar][Sar][Sar][Sar][Sar][Sar][Sar][Sar][Sar][Sar]AC[dA]NE[1Nal]ACADFYD[Tle]C-NH2; linker 12-18-25 via TBMB)
Kd [2]: > 5 µM
tissue uptake at 1 h [3]: 0.28 ± 0.05 %ID/g

CCCCCCCCCCCCCCCC(=O)NCCC(=O)N(C)CC(=O)N(C)CC(=O)N(C)CC(=O)N(C)CC(=O)N(C)CC(=O)N[C@@H](CCCCNC(=O)CN1CCN(CC(=O)O)CCN(CC(=O)O)CCN(CC(=O)O)CC1)C(=O)N(C)CC(=O)N(C)CC(=O)N(C)CC(=O)N(C)CC(=O)N(C)CC(=O)N(C)CC(=O)N(C)CC(=O)N(C)CC(=O)N(C)CC(=O)N(C)CC(=O)N[C@@H](C)C(=O)N[C@H]1CSCc2cc3cc(c2)CSC[C@H](NC(=O)[C@H](C)NC(=O)[C@H](Cc2cccc4ccccc24)NC(=O)[C@H](CCC(=O)O)NC(=O)[C@H](CC(N)=O)NC(=O)[C@@H](C)NC1=O)C(=O)N[C@@H](C)C(=O)N[C@@H](CC(=O)O)C(=O)N[C@@H](Cc1ccccc1)C(=O)N[C@@H](Cc1ccc(O)cc1)C(=O)N[C@@H](CC(=O)O)C(=O)N[C@@H](C(C)(C)C)C(=O)N[C@H](C(N)=O)CSC3 [I-29] ({Palmitoyl-βAla}-[Sar][Sar][Sar][Sar][Sar]K(DOTA)[Sar][Sar][Sar][Sar][Sar][Sar][Sar][Sar][Sar][Sar]AC[dA]NE[1Nal]ACADFYD[Tle]C-NH2; linker 18-24-31 via TBMB)
tumour uptake ([1]; 750 pmole per mouse, 6 hour timepoint): 4.8%
